2 molecules from article PMC4148139 (Biochemistry, 2014) can be followed below.

In general, stoichiometry N refers to a count of units in the complex or per binding partner.

In this assay the target is T1, FADD DD (death domain of Fas-associated protein with death domain, residues 93-184), His-tagged (UniProt Q13158 93-184).
T1 sequence (looked up): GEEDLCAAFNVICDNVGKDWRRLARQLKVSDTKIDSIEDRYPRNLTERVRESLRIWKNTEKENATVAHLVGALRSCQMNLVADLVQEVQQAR
Description: SEC-MALS. Background: SEC sorts molecules by how far they enter the pores of the column.

B1: RIP1 DD (death domain of receptor interaction protein kinase 1, residues 583-664), His-tagged (domain or fragment, UniProt Q13546 583-664, looked up)
chain: TDKHLDPIRENLGKHWKNCARKLGFTQSQIDEIDHDYERDGLKEKVYQMLQKWVMREGIKGATVGKLAQALHQCSRIDLLSS
Consider B1, for which the “stoichiometry N” value was ~1 RIP1 DD per FADD DD (5:5).

B2: GST-tagged RIP1 DD (domain or fragment, UniProt Q13546 583-664, looked up)
chain: TDKHLDPIRENLGKHWKNCARKLGFTQSQIDEIDHDYERDGLKEKVYQMLQKWVMREGIKGATVGKLAQALHQCSRIDLLSS
Consider B2, for which the “stoichiometry N” value is 1 GST-RIP1 DD per FADD DD (5:5).
